B1: TPR t1 (parent)
chain: GACCAAUCUGCCCUCAGAGCUCGAGAACAUCUUCGGAUGCAGAGGAGGCAGGCUUCGGUGGCGCGAUAGCGCCAACGUCCUCAACCUCCAAUGCAUCCCACCACAUGAUGAUGCCUGAAGAGCCUUGGUUUUUUG

Variants of: B1
Experiment: polymerase ribozyme fitness, log enrichment relative to wild type (log ratio); higher = more active; in vitro selection for triplet polymerase activity
Summary of the method: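 The heterodimeric triplet polymerase ribozyme's subunits were each mutagenized into PCR-built libraries and transcribed. Every library was selected once, in triplicate, by annealing with a biotinylated primer, the partner subunit and triplets, incubating frozen at −7 °C, gel-excising extended constructs, capturing on streptavidin beads and running RT-PCR. Input and output libraries were Illumina-sequenced, with genotypes kept only at ≥10 input reads and ≥1 read per output. Fitness, from inverse-variance-weighted replicate averages, is the base-2 logarithm of genotype enrichment over wild-type enrichment.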

Row | Variant | polymerase ribozyme fitness (log ratio)
1 | G19U U96A C114A | 0.905
2 | A75G U129C | -0.465
3 | C28G A66G C123U | -3.76
4 | C62A C97U U106A | -1.52
5 | C40G C56U A91C | -2.49
6 | G39U C49A | -0.99
7 | C8A G36U U132A | -1.09
8 | A41C C80G A121G U132A | -4.51
9 | A6U A50G C123A G128C | -0.104
10 | U7G C12U C15A C22G C62U C80U C86U U96C G113C | -6.05
11 | G52C C114U G127U U133A | -6.16
12 | A24G G71C G120U | -2.78
13 | U21A G63A C88A A91C | -5.41
14 | C4U A41C | -1.67
15 | U7C C11A G45C G58A A121C | 0.57
16 | G10A C20U G65A C70A A91U C104G G120U | -6.74
17 | A16C G25U A26G | -4.77
18 | A43C U87G G113C | -2.52
19 | C11U C20A U87A A91C A118U | -2.95
20 | A91G C98U | -1.4
21 | U9A G36C | 0.19
22 | A6G U112A U125G U129A | -1.7
23 | U9A C86A C98U | -0.22
24 | C11U C22G A111G G122U U129C | -6.1

Row | Variant | polymerase ribozyme fitness (log ratio)
25 | C49A G69U | 0.034
26 | C64G C124A | -4.25
27 | C31A G36C G60C C72G C98A C99A C124U G128U | -7.42
28 | A6C A27G A121C | -0.0909
29 | G58A C79A | -1
30 | C82G U132A | -0.6
31 | C3A A16U C73G | -3.81
32 | C34U C115U | -5.45
33 | C13U A50G | -0.113
34 | A6C C12A C53U U78C | -1.07
35 | C56U G93A G110C | -5.11
36 | C8A G45C A50C G57C G93C | -2.56
37 | A2G A5G C20A A46C U112G G122U U129C | -5.3
38 | A27C C28U | -5.13
39 | C22A C49U C56A U78C G117U | -5.8
40 | C3A C40A G93U G110U | -3.31
41 | C8U C64A C115U | -6.79
42 | A6G A121U U125G | -0.777
43 | C8A C114U U126C | -2.4
44 | A41G U54C G61C C104A | -6.52
45 | U7C C8G C12U G19C G63A A66U C115A G128C | -4.6
46 | C88U G113C | -2.8
47 | A43U C70G | -4.41
48 | C11G A18C U125A | -2.13

Row | Variant | polymerase ribozyme fitness (log ratio)
49 | G93C G113A C124G | -0.942
50 | C11U U106C | -0.678
51 | A16U G60U U87G G122A U126C | -3.42
52 | G36A G61C | -2.63
53 | G19A G77U | -2.96
54 | U87G A103C U106C C124G | -1.08
55 | C13A G48A U96A | -2.1
56 | A74U G117A U130C | -2.62
57 | C12A C88U U109A C114A U133C | -6.51
58 | G36U G120A U126A U132A | -0.708
59 | A27U G127A | -4.51
60 | C13G U59C C124A | 1.58
61 | C56A C123U C124U | 1.2
62 | A5G G77U G113U G122C | -3.27
63 | C97U U133A | -0.824
64 | C8U C34U | -3.66
65 | G36C U78C | -1.49
66 | G36U G60C | -1.25
67 | C40U C49A C94U G117C | -5.09
68 | U67C C123G | -4.34
69 | U54A C56U G93A | 0.304
70 | C8G G36U U54C A91C C124A | -0.94
71 | U7C C85G U87C | -1.57
72 | G36A G52A G63U | -3.22

Row | Variant | polymerase ribozyme fitness (log ratio)
73 | C49G G77U | -1.25
74 | A41U C53A C114G | -1.85
75 | A37G C72A A84G | -1.24
76 | C4A G36A C73A | -3.19
77 | G17A G36U U112G | -4.13
78 | A18U G45U G63U G71C G110C C114G C124U | -7.92
79 | C72U C94G A95G C123U | -0.867
80 | G39A G110C | -4.65
81 | C3U C12A G60A | -1.22
82 | C12U G44U | -0.985
83 | C8A G93A | -0.248
84 | A27U A83U G128C | -6.05
85 | G19A G71C G127C | -4.23
86 | G71A C85U G128U U131A | -3.17
87 | A6C C13U C53U C85U A105U C124A U126G | -3.62
88 | A37C G61U C73U | -1.35
89 | C20A G117U | -3.2
90 | C13A C40U | -1.37
91 | C8U C49A | 0.373
92 | C15A A41C C72A | -2.94
93 | A37G C88G | -2.83
94 | G10U C11G | 0.195
95 | C8A A24G U32A C73G A111G | -4.24
96 | C12U C102A C124U | 0.00391

Row | Variant | polymerase ribozyme fitness (log ratio)
97 | A27C A43C C114U | -4.33
98 | C8U G69U G93C | 0.148
99 | A74G C89G | -1.41
100 | C3A G44U | -3.37
101 | C53U G71A | -0.671
102 | A16U C70A | -3.19
103 | A6C C11G C15U C102A G120A U133A | -2.14
104 | G39U U59A C98U A121G | 0.547
105 | C3U U55C G120C | -1.02
106 | C15U G52U | -2.36
107 | G44C C86U U96G U129C | -2.63
108 | G120A U129G | -0.391
109 | G44A A119G C123A | 0.608
110 | C28G C98U C124U | -3.04
111 | G63C C102A U112A | -1.64
112 | C72U G122U | 0.145
113 | G63A C73G | -4.71
114 | G60A C82U C85G U129A | -3
115 | A27G C89A | -3.54
116 | A29G A46G | -1.09
117 | A27C G61A | -4.32
118 | A43U G63C A100U C124G | -2.24
119 | A26G G42C C72A | -5.15
120 | G52U C98U | -2.89

Row | Variant | polymerase ribozyme fitness (log ratio)
121 | U54A U92C G128A | -3.16
122 | G10A C49G U133A | -0.21
123 | G23A A50U G61U G71C A100C A105C U116C U125A G128U | -5.77
124 | U14C A46U G60C U116C G117A | -5.66
125 | G48C A50G C102A | -3.21
126 | C11A C13U A41U | -2.84
127 | C11U G36U | -1.77
128 | G42C C62U | -2.97
129 | C13G G63U | -2.53
130 | A43U G60C C76G U78A G113C U125A | -4.6
131 | A16U G58U C123A | -2.18
132 | C40U U54A | -0.773
133 | G47U C73A U78C C88U A95G | -4.73
134 | C3U A24G G47C | -3.61
135 | A50C A91G C124A U133A | 1.25
136 | C12G G52U | -0.405
137 | C11G C40G C70G C89U | -5.83
138 | C28A G51U G60C C80U G110U G117A | -2.3
139 | G35A C102U | -5.08
140 | C3U C88A | -1.53
141 | C11G G127C | -0.995
142 | G35U C64G C97G G117C | -7.13
143 | C12U C13U A18U C20G | -4.78
144 | C12G U33G C76A A100C C123G | -5.88

Row | Variant | polymerase ribozyme fitness (log ratio)
145 | U21A C62U A119U | -0.733
146 | G71C U106A G113C | -3.53
147 | A26G G48A C49G A121U | -0.318
148 | U78C C88A | -0.513
149 | U14C U54G | -1.76
150 | A50U C82U A119U | -2.14
151 | C53A U130A | 0.226
152 | C102U A121U | 0.0802
153 | C11G G39A C49G C53U G69A A75U G120C | -2.05
154 | G44U C49U U96C A111G | -3.97
155 | U9C C13G | 0.844
156 | C15G G25C A41U U109A | -5.74
157 | U78A | -0.254
158 | G44U C82G | -1.77
159 | U9G U38G C70U A105U | -4.46
160 | U7G C31U C62U A100C U106A G113A | -4.43
161 | C62U G110C | -3.93
162 | G44C U55A C70U C88G G117C | -6.75
163 | G52U C56U C62U U130A | -1.37
164 | A43G G93C G120A | -2.35
165 | G71A U78A | -0.645
166 | A74U U112A G113C A118C G135U | -3.34
167 | C20G G44A G120C | -4.1

Source: the RNAGym collection of RNA variant scans (doi:10.1073/pnas.2313332121)
